Assays:
LRP6 = target: T1, LRP6 (Homo sapiens, UniProt O75581); assay: 125I-DKK1 binding to LRP6; details: 500 nM unlabeled, 125I-DKK1 5 nM, 3 hours at 4° C.
T1 construct: expressed in transfected cells; host or cells: human HT1080 cells, retroviral vector pLNCX2
Description: Cells (2×10^5) were seeded into 12-well dishes 1 day prior to assay. Ligand-binding buffer (minimal Eagle's medium containing 0.6% BSA with a different concentration of radioligand, 0.6 ml/well) was added to cell monolayers, in the absence or the presence of 500 nM unlabeled RAP or 500 nM unlabeled Mesd, followed with incubation for 0-4 hours at 4° C. Thereafter, overlying buffer containing unbound ligand was removed, and cell monolayers were washed and lysed in low-SDS lysis buffer (62.5 mM Tris-HCl pH 6.8, 0.2% SDS, 10% v/glycerol) and counted.
RAP is a receptor antagonist for members of the LDLR family, and is able to inhibit the binding of most known ligands of the LDLR family members. DKK1 is an LRP6-specific ligand and antagonist. […] In these experiments, Serum-free conditioned medium was harvested from HEK293 cells transiently transfected with cDNA for human Myc-DKK1 and allowed to bind to LRP6-transduced HT1080 cells (B,C) and control cells (A) in the absence (A,B) or presence (C) of 1 μM Mesd. Cell-surface-bound Myc-tagged DKK proteins were fixed and detected by immunofluorescence staining with anti-Myc antibody. (D) DKK1 binding to cell surface LRP6 is inhibited by Mesd. Binding of 125I-DKK1 (5 nM) to LRP6-transduced HT1080 cells or the control cells was carried out for 3 hours at 4° C. in the absence (total) or presence of 500 nM RAP or 500 nM Mesd. […]

Wnt signaling = Wnt signaling in MMTV-Wnt1 tumors (GST-E-cadherin pull-down, c-Myc expression); type: in vivo, mice; details: GST-E-cadherin pull-down and c-Myc expression
Description: The GST-E-cadherin pulldown assay was performed as previously described (2). Cells expressing control or LRP6 shRNA were treated with L cells or Wnt3a-conditioned media (CM) for 4 h. Free β-catenin was determined using a GST-E-cadherin pull-down assay. Cells were lysed for 30 minutes at 4° C. Protein concentrations in lysates were quantified, and equal quantities of total proteins from different samples were incubated with GST-E-cadherin Sepharose beads for 4 h at 4° C. After incubation, the beads were washed three times and the bound proteins were eluted and separated via SDS-PAGE. Western blotting was performed using antibody to β-catenin.
In these experiments, mice bearing established MMTV-Wnt1 tumor transplants were divided into three groups (five animals per group) and were i.p. injected with PBS (vehicle), Mesd, or Mesd peptide every other day. Tumor volume was analyzed using caliper measurement. Data represent at least three independent experiments and each time point represents the mean tumor volume±SEM. *p<0.05; **p<0.01. […] Scale bar=50 μm.

T1 sequence (O75581 20-1613): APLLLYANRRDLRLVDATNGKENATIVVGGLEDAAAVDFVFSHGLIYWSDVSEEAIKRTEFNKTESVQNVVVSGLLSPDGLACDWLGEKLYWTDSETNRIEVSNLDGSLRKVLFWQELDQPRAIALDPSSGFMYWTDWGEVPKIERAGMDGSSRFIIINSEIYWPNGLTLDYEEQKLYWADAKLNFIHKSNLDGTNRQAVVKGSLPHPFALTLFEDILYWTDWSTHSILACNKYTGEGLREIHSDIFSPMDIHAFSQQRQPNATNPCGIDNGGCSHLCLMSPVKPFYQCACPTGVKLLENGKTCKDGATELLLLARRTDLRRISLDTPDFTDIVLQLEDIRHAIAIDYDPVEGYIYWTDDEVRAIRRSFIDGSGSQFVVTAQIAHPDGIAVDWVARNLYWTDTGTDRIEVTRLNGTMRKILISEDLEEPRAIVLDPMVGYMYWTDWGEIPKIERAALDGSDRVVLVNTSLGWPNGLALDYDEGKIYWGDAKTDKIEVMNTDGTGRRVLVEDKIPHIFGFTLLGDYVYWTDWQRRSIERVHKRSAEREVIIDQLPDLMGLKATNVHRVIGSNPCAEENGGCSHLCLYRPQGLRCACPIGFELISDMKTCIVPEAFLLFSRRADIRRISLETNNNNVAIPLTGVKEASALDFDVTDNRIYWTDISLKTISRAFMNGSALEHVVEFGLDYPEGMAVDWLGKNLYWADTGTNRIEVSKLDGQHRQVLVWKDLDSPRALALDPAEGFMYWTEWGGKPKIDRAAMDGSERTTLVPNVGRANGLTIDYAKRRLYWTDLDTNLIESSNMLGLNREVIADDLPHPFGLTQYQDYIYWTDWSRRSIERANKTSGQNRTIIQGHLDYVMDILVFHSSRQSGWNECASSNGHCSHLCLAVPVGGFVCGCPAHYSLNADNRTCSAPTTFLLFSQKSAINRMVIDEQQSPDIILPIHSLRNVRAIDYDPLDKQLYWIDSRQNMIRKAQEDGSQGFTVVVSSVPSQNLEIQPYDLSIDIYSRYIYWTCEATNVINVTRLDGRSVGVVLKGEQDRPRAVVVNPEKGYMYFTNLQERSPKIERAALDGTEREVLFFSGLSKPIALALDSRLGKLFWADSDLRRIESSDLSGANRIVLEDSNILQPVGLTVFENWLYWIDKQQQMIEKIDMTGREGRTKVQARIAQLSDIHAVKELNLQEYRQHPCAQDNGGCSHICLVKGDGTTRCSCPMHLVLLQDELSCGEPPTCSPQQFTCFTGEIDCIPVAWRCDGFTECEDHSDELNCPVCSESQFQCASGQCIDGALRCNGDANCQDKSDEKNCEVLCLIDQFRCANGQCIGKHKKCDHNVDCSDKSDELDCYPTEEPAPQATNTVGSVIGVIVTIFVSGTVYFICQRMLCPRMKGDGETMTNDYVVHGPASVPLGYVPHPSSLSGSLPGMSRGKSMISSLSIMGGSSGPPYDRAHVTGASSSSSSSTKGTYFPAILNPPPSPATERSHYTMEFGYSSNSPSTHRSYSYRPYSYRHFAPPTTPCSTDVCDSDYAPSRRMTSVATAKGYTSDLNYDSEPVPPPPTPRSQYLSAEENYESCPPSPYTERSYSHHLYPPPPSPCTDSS

B1: Mesd: Recombinant full-length mouse Mesd expressed in E. coli, N-terminal polyhistidine tail, lacking the signal peptide (protein)
chain: ADTPGEATPPPRKKKDIRDYNDADMARLLEQWEKDDDIEEGDLPEHKRPSAPIDFSKLDPGKPESILKMTKKGKTLMMFVTVSGNPTEKETEEITSLWQGSLFNANYDVQRFIVGSDRAIFMLRDGSYAWEIKDFLVSQDRCAEVTLEGQMYPGKGGGSKEKNKTKPEKAKKKEGDRKPRASKEDNRAGSRREDL
modifications: left off: small tags and cut ends
notes: Recombinant full-length mouse Mesd expressed in E. coli, N-terminal polyhistidine tail, lacking the signal peptide
LRP6
  Effect on increased 125I-DKK1 binding of LRP6-expressing HT1080 cells: abolished
Wnt signaling
  Wnt signaling in tumors compared to control treatment: decreased Wnt signaling

Source: patent US8198236B2, “Methods and compositions for the treatment of cancer” (Washington University, priority 2007, dated 2012)
